± gives the uncertainty stated by the source.

Amyloid nucleation score data for 102 substances are collected here from the supplement of paper PMC12042874.

A short description of the data set: amyloid nucleation score (Sup35N fusion, yeast selection) (log enrichment); library NNK2; higher = more nucleation; inactive = no reads after selection. In a few lines: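 For the nucleation score, DiMSum gave the log enrichment of output over input reads, centred on the mode score of non-aggregating sequences. Psi-negative yeast expressing Sup35N fused to peptides of 20 random codons were induced with 100 μM copper sulfate for 24 hours and grown 7 days at 30°C on medium lacking adenine and uracil. Input and output plasmid inserts were Illumina-sequenced, and sequences with under 100 input reads were excluded.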
For VDREKKEKTLVDGTQMVTCL, the amyloid nucleation score worked out at 1.12 ± 0.32.

The substance VDTELKVNSYRPGWTEHSRT displayed an amyloid nucleation score of 0.738 ± 0.21.

In the case of VDVHIIIMKPDSWVCPNRCS, the amyloid nucleation score entry is “inactive”.

In the case of VEADVYDRDVTSWRMLYLYK, the amyloid nucleation score is 0.174 ± 0.4.

Turning to VEALSISMQLYYRSLVAG, the amyloid nucleation score was -0.066 ± 1.

With VEGLNCVLSDNKVANGS, the amyloid nucleation score is -0.791 ± 0.44.

Take VEGLQ: the amyloid nucleation score entry was “inactive”.

For the substance VESLFGYW, the amyloid nucleation score is -0.889 ± 1.1.

With VESMILSRYLHHILRGNSLC, the amyloid nucleation score was -1.15 ± 1.1.

In the case of VFACLNVLSLMNEDFFVMSD, the amyloid nucleation score is -0.708 ± 0.54.

As for VFDEVVVDTLKWWSCVSAGI, the amyloid nucleation score is -0.484 ± 0.54.

Take VFFGLWRIVRGETSHFYRDE: the amyloid nucleation score is -0.835 ± 0.27.

Turning to VFFNLDSWSSKVCDSKLMVM, the amyloid nucleation score was -0.373 ± 0.54.

For the substance VFIMGPTS, the amyloid nucleation score came to 3.96 ± 0.092.

Regarding VFLSRVFNSF, the amyloid nucleation score is -0.317 ± 0.79.

In turn, VFNILFSM yielded an amyloid nucleation score of 9.098 ± 0.06.

Regarding VFNLL, the amyloid nucleation score result is “inactive”.

In the case of VFPMVFTKGNANVCHI, the amyloid nucleation score was found to be 0.886 ± 0.58.

Regarding VFRFNFLRGLKIQVLSRFGW, the amyloid nucleation score is -0.067 ± 1.1.

In the case of VFVSCYYAYLLRDTTNFYVG, the amyloid nucleation score result was “inactive”.

In the case of VFVSWILFTVSPFIIRYRVN, the amyloid nucleation score was -1.72 ± 0.75.

As to VFWGM, the amyloid nucleation score is -1.35 ± 0.49.

In the case of VFWLNGWYCYI, the amyloid nucleation score was 3.65 ± 0.056.

The substance VFYTFMTSALGIRVTRSSCL yielded an amyloid nucleation score of 1.12 ± 0.22.

Substance VFYVCFKLQIIDGMLNWCKG gave an amyloid nucleation score of 7.237 ± 0.032.

Take VGDVKVWTVRSSTNATEKFL: the amyloid nucleation score came to 0.551 ± 0.27.

Consider VGEYLCEPATLY, for which the amyloid nucleation score was -0.018 ± 1.1.

Substance VGFGVFVV returned an amyloid nucleation score of 0.213 ± 0.24.

Regarding VGFHEDNMEVR, the amyloid nucleation score entry was “inactive”.

On to VGHQVDCHTSVRYYILYAFF, for which the amyloid nucleation score was 7.839 ± 0.063.

VGICFDNRMVTWHLSDRQSP registered an amyloid nucleation score of 3.58 ± 0.072.

Take VGKRNLISMVGYPYD: the amyloid nucleation score was -1.09 ± 0.39.

Regarding VGLFNVTLAFVLYGSSRLVL, the amyloid nucleation score came out at 4.12 ± 0.057.

Take VGNLRGYVKLVISFSVLRHK: the amyloid nucleation score result is “inactive”.

On to VGPMEGGYPGVAQLLGEKRN, for which the amyloid nucleation score was 2.3 ± 0.2.

Take VGSGRLTWT: the amyloid nucleation score worked out at 0.917 ± 0.28.

As to VGSSEAFCYGLTDFKRENLA, the amyloid nucleation score result is “inactive”.

Take VGTSWLFLMV: the amyloid nucleation score entry was “inactive”.

Regarding VGTTNQYDEPTTGLSHC, the amyloid nucleation score came out at 0.953 ± 0.32.

In the case of VGWKTGDRPSEMSSSWDLNG, the amyloid nucleation score was -0.093 ± 0.37.

Regarding VGYFLSPMTVQLN, the amyloid nucleation score result is “inactive”.

Turning to VGYIMYIYDGYRVVFVGYYR, the amyloid nucleation score came out at 0.217 ± 0.65.

With VHCSVGNINKDVSCTVVRP, the amyloid nucleation score turned out to be 0.892 ± 0.47.

VHICRTNDG: the amyloid nucleation score is 0.632 ± 0.44.

Regarding VHIMEDVMRRFCDRCTCRTW, the amyloid nucleation score was determined as 0.562 ± 0.44.

For VHIYQTPPLKCIWSMDKTPA, the amyloid nucleation score is -0.442 ± 1.

For VHLNTFATFMGWLTDSWLGV, the amyloid nucleation score result is “inactive”.

The substance VHLTGSCHPNYSGVGKCMVI showed an amyloid nucleation score of 0.168 ± 0.49.

Turning to VHPGMNLDMSNACSAFVRTW, the amyloid nucleation score was -0.631 ± 1.

As for VHQYDSVSAVHADCMG, the amyloid nucleation score is -1.27 ± 0.53.

On to VHRLRMGRVWFDKDSDVVGK, for which the amyloid nucleation score was found to be 0.148 ± 1.

In the case of VHRWSDTYTTTYM, the amyloid nucleation score was -0.535 ± 0.33.

Substance VHSNCSLNGPCMPMCVRRRW gave an amyloid nucleation score of 0.302 ± 0.56.

For VHTARLTWDLGYSVRCYYWT, the amyloid nucleation score was 6.47 ± 0.074.

With VICVLSYADCSKLGWGHSLT, the amyloid nucleation score amounted to 8.868 ± 0.043.

On to VIGRCDSL, for which the amyloid nucleation score result was “inactive”.

Turning to VIIFFFVFRCMPDLIQVYCV, the amyloid nucleation score is -1.72 ± 1.

For VILYGFNKVMECSTYVVV, the amyloid nucleation score is -0.804 ± 1.1.

VIMGFFGITFGWCKRSEVHE: the amyloid nucleation score is 2.49 ± 0.11.

The substance VINRMCIVWPYMSSYWEWNV gave an amyloid nucleation score of 9.126 ± 0.06.

With VIPKHESISILFPAVYPPFE, the amyloid nucleation score is 0.031 ± 0.23.

In the case of VIPSSILLEGYVLLYACYLP, the amyloid nucleation score was -0.217 ± 0.44.

As to VIRYINSEDFRTGREFTRGV, the amyloid nucleation score is -1.68 ± 0.78.

VISSLSISCYDHSVYVKAVK: the amyloid nucleation score amounted to 0.445 ± 0.33.

As to VISSRGALCRRAKQ, the amyloid nucleation score was determined as 0.409 ± 0.53.

On to VIVWFWRFQNMNVAREFMAE, for which the amyloid nucleation score was -0.297 ± 0.37.

Consider VKAWYWLKARFVLWTVGARL, for which the amyloid nucleation score was -0.093 ± 0.79.

In the case of VKFNDFTHKNWY, the amyloid nucleation score came to 0.058 ± 0.74.

With VKGHKRESSWNWRSDGNMWA, the amyloid nucleation score is -0.111 ± 0.61.

Turning to VKHIGGISARVYKNCAASAV, the amyloid nucleation score is -0.74 ± 0.63.

The substance VKIWDHKCSLRGYWVKWMIG had an amyloid nucleation score of 1.45 ± 0.3.

Regarding VKLEMD, the amyloid nucleation score is -0.617 ± 0.21.

VKLHSVSYLIFLL showed an amyloid nucleation score of 4.8 ± 0.11.

VKMLSLKSIHLSYFCECASW registered an amyloid nucleation score of 0.28 ± 0.21.

For VKNWVISCGGILNDARRLFD, the amyloid nucleation score is -0.78 ± 1.1.

VKQYYGSESNNGITFILRIA returned an amyloid nucleation score of 0.177 ± 0.38.

Consider VKSLLRDLCGPGCMLYMIVH, for which the amyloid nucleation score is -0.11 ± 0.53.

Regarding VKTRTFRTCRSHRIEFMDWV, the amyloid nucleation score was -0.064 ± 1.1.

The substance VKTRVQPRTGDLSATLLGLE registered an amyloid nucleation score of 0.828 ± 0.48.

VKVGEISCFNFKEYTFLLTD: the amyloid nucleation score result is “inactive”.

Substance VKYVIIEHFNWSVSCCAYLR showed an amyloid nucleation score of 1.37 ± 0.23.

As to VLCEQHGTGKHSISAEKGHR, the amyloid nucleation score was determined as 1.44 ± 0.41.

Regarding VLFSRTTSEEDKRSIISMNN, the amyloid nucleation score stood at 2.17 ± 0.18.

VLGGLCSVFGDDGTAYYSSS displayed an amyloid nucleation score of 0.417 ± 0.36.

Consider VLGVLR, for which the amyloid nucleation score result was “inactive”.

VLIFRAMIFDDKALVGMKD: the amyloid nucleation score is -0.521 ± 0.45.

On to VLILNQE, for which the amyloid nucleation score entry was “inactive”.

In the case of VLMDASTSVYTRSLMWKYMR, the amyloid nucleation score was -0.162 ± 0.76.

For VLNIFVT, the amyloid nucleation score was found to be 7.248 ± 0.061.

Regarding VLPLFNGIARHPCWNLCMPM, the amyloid nucleation score is -1.27 ± 0.62.

Regarding VLPLGHWMAFMTREVCGADM, the amyloid nucleation score was 0.514 ± 0.17.

Consider VLRHLD, for which the amyloid nucleation score is 0.44 ± 0.54.

For VLRMRGCW, the amyloid nucleation score was 6.738 ± 0.049.

For VLRTPIIHTMGTGQV, the amyloid nucleation score is 0.297 ± 0.56.

In turn, VLSMVVDKCLCTMCIQAIVL had an amyloid nucleation score of 9.711 ± 0.058.

Substance VLSTWWVSYAGTVFVRSEGT displayed an amyloid nucleation score of 3.58 ± 0.14.

In turn, VLVKSLMRENVPCPPLGTLS returned an amyloid nucleation score of 0.942 ± 0.36.

In the case of VLVMLGGNSARVSCNWVM, the amyloid nucleation score was 7.457 ± 0.031.

In turn, VLWLADLSR came in with an amyloid nucleation score of 0.113 ± 0.8.

Regarding VLYVGWFRAKDNIVFLTYGC, the amyloid nucleation score is -0.158 ± 0.61.

VMARYMFVK showed an amyloid nucleation score of 0.064 ± 0.65.

VMCFVDRDRFCNLFKLCLEF: the amyloid nucleation score was -1.45 ± 0.49.
